From the supplement of paper PMC9112550, “Optimization of the antimicrobial peptide Bac7 by deep mutational scanning” (BMC Biology, 2022)

system: Escherichia coli TOP10; assay: shrunken log2 fold change of peptide-encoding DNA abundance (4.5 h post-induction vs induction); higher = less antimicrobial activity (less host growth inhibition); conditions: time post-induction: 4.5 h; library: site-saturation at positions 5, 18, 19, 20
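Further: peptides expressed intracellularly from a pBAD plasmid library in pooled LB shake-flask culture, induced with 0.3% L-arabinose, DNA abundance read by NGS, three biological replicates, DESeq2 with apeglm shrinkage.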

Sequence | shrunken log2 fold change
RRIRPRPPRLPRPRPRPWLCPRP | 0.106
RRIRTRPPRLPRPRPRPKWRPRP | 0.394
RRIRMRPPRLPRPRPRPAVHPRP | 0.0654
RRIRCRPPRLPRPRPRPMEAPRP | -0.0255
RRIRPRPPRLPRPRPRPPNKPRP | 0.139
RRIRNRPPRLPRPRPRPHNEPRP | -0.509
RRIRERPPRLPRPRPRPQLKPRP | -0.358
RRIRTRPPRLPRPRPRPKSVPRP | -0.0225
RRIRMRPPRLPRPRPRPVFSPRP | 0.314
RRIRSRPPRLPRPRPRPNYDPRP | -0.247
RRIRGRPPRLPRPRPRPKAFPRP | 0.157
RRIRARPPRLPRPRPRPMCQPRP | 0.13
RRIRWRPPRLPRPRPRPAYPPRP | 0.00826
RRIRRRPPRLPRPRPRPKNDPRP | 0.277
RRIRDRPPRLPRPRPRPHYGPRP | -0.192
RRIRMRPPRLPRPRPRPKGAPRP | 1.76
RRIRERPPRLPRPRPRPVENPRP | -0.0218
RRIRQRPPRLPRPRPRPDTWPRP | -0.197
RRIRLRPPRLPRPRPRPLYLPRP | -0.837
RRIRQRPPRLPRPRPRPRNMPRP | -0.211
RRIRGRPPRLPRPRPRPRMKPRP | 0.426
RRIRPRPPRLPRPRPRPQGMPRP | -0.279
RRIRQRPPRLPRPRPRPCCRPRP | -0.0851
RRIRGRPPRLPRPRPRPHFPPRP | 0.0246
RRIRDRPPRLPRPRPRPMWFPRP | 0.0563

Sequence | shrunken log2 fold change
RRIRRRPPRLPRPRPRPHNQPRP | -0.114
RRIRKRPPRLPRPRPRPHQCPRP | -0.0321
RRIRERPPRLPRPRPRPNFEPRP | -0.188
RRIRYRPPRLPRPRPRPLEQPRP | -0.121
RRIRFRPPRLPRPRPRPGGKPRP | 0.228
RRIRDRPPRLPRPRPRPQHEPRP | -0.00197
RRIRGRPPRLPRPRPRPAYAPRP | 0.0503
RRIRLRPPRLPRPRPRPKNPPRP | -0.606
RRIRFRPPRLPRPRPRPHYYPRP | -0.524
RRIRPRPPRLPRPRPRPKVRPRP | 0.161
RRIRKRPPRLPRPRPRPWKTPRP | 0.0649
RRIRFRPPRLPRPRPRPMRSPRP | 0.904
RRIRVRPPRLPRPRPRPIKNPRP | -0.361
RRIRHRPPRLPRPRPRPMMFPRP | -0.18
RRIRGRPPRLPRPRPRPSFFPRP | 0.202
RRIRFRPPRLPRPRPRPPGYPRP | 0.0848
RRIRTRPPRLPRPRPRPRNQPRP | -0.139
RRIRWRPPRLPRPRPRPCPRPRP | -0.0457
RRIRMRPPRLPRPRPRPCHAPRP | -0.00133
RRIRPRPPRLPRPRPRPSSQPRP | -0.201
RRIRKRPPRLPRPRPRPHFNPRP | -0.0789
RRIRDRPPRLPRPRPRPTIKPRP | -0.295
RRIRSRPPRLPRPRPRPYIVPRP | -0.646
RRIRMRPPRLPRPRPRPGWVPRP | 0.0878
RRIRPRPPRLPRPRPRPDGFPRP | -0.0011

Sequence | shrunken log2 fold change
RRIRQRPPRLPRPRPRPSFDPRP | 0.182
RRIRSRPPRLPRPRPRPLWPPRP | 0.229
RRIRKRPPRLPRPRPRPGDPPRP | 1.21
RRIRNRPPRLPRPRPRPAKWPRP | 0.112
RRIRLRPPRLPRPRPRPCPKPRP | 0.136
RRIRTRPPRLPRPRPRPPMDPRP | 0.15
RRIRQRPPRLPRPRPRPAPFPRP | 0.613
RRIRTRPPRLPRPRPRPFEPPRP | -0.231
RRIRYRPPRLPRPRPRPYKVPRP | -0.0075
RRIRVRPPRLPRPRPRPCQIPRP | -0.34
RRIRYRPPRLPRPRPRPILPPRP | 0.00451
RRIRRRPPRLPRPRPRPVPYPRP | -0.195
RRIRGRPPRLPRPRPRPHWNPRP | -0.017
RRIRDRPPRLPRPRPRPNCIPRP | -0.00269
RRIRKRPPRLPRPRPRPSCGPRP | 0.817
RRIRPRPPRLPRPRPRPSLYPRP | -0.326
RRIRLRPPRLPRPRPRPCTNPRP | -0.094
RRIRFRPPRLPRPRPRPDHPPRP | -0.593
RRIRERPPRLPRPRPRPGTLPRP | -0.251
RRIRQRPPRLPRPRPRPSEAPRP | 0.17
RRIRFRPPRLPRPRPRPSDDPRP | -0.106
RRIRIRPPRLPRPRPRPTQKPRP | 0.0769
RRIRRRPPRLPRPRPRPMHHPRP | 0.0725
RRIRIRPPRLPRPRPRPQFSPRP | -0.371
RRIRPRPPRLPRPRPRPWEHPRP | -0.0525

Sequence | shrunken log2 fold change
RRIRVRPPRLPRPRPRPNCQPRP | -0.1
RRIRPRPPRLPRPRPRPNHEPRP | -0.419
RRIRVRPPRLPRPRPRPWCEPRP | -0.293
RRIRSRPPRLPRPRPRPDGRPRP | 0.0253
RRIRERPPRLPRPRPRPQCKPRP | -0.276
RRIRDRPPRLPRPRPRPMRHPRP | 0.089
RRIRRRPPRLPRPRPRPYVFPRP | -0.623
RRIRARPPRLPRPRPRPFWTPRP | 0.29
RRIRVRPPRLPRPRPRPQPRPRP | 0.429
RRIRNRPPRLPRPRPRPTMIPRP | -0.387
RRIRPRPPRLPRPRPRPCRPPRP | -0.168
RRIRWRPPRLPRPRPRPVQNPRP | 0.316
RRIRPRPPRLPRPRPRPDCQPRP | -0.0657
RRIRRRPPRLPRPRPRPGTHPRP | 0.243
RRIRPRPPRLPRPRPRPYISPRP | -0.75
RRIRSRPPRLPRPRPRPELPPRP | 0.0311
RRIRLRPPRLPRPRPRPSFLPRP | -0.562
RRIRRRPPRLPRPRPRPGERPRP | 0.0829
RRIRCRPPRLPRPRPRPHWLPRP | -0.311
RRIRNRPPRLPRPRPRPDKQPRP | 0.00349
RRIRYRPPRLPRPRPRPFWSPRP | -0.363
RRIRPRPPRLPRPRPRPPRPPRP | 0.682
RRIRHRPPRLPRPRPRPGIKPRP | 0.0126
RRIRLRPPRLPRPRPRPKKWPRP | 0.11
RRIRYRPPRLPRPRPRPSEKPRP | -0.116

Sequence | shrunken log2 fold change
RRIRLRPPRLPRPRPRPMSNPRP | -0.089
RRIRWRPPRLPRPRPRPNKGPRP | -0.346
RRIRVRPPRLPRPRPRPSPVPRP | 0.216
RRIRHRPPRLPRPRPRPETQPRP | -0.137
RRIRMRPPRLPRPRPRPADTPRP | 0.367
RRIRLRPPRLPRPRPRPLRAPRP | 0.709
RRIRGRPPRLPRPRPRPTQCPRP | 0.222
RRIRNRPPRLPRPRPRPMKGPRP | -0.0787
RRIRIRPPRLPRPRPRPCEAPRP | -0.395
RRIRFRPPRLPRPRPRPQAQPRP | 0.023
RRIRSRPPRLPRPRPRPYHNPRP | -1.22
RRIRERPPRLPRPRPRPYMDPRP | -0.534
RRIRLRPPRLPRPRPRPKNHPRP | -0.269
RRIRERPPRLPRPRPRPLWQPRP | 0.113
RRIRHRPPRLPRPRPRPSGGPRP | -0.0256
RRIRQRPPRLPRPRPRPGLIPRP | -0.118
RRIRGRPPRLPRPRPRPQVNPRP | 0.0954
RRIRCRPPRLPRPRPRPVTEPRP | -0.127
RRIRFRPPRLPRPRPRPEDYPRP | 0.0145
RRIRWRPPRLPRPRPRPMETPRP | 1.73
RRIRYRPPRLPRPRPRPQWEPRP | -0.0193
RRIRPRPPRLPRPRPRPPQAPRP | 0.335
RRIRHRPPRLPRPRPRPSFCPRP | -0.507
RRIRPRPPRLPRPRPRPRRWPRP | 0.56
RRIRPRPPRLPRPRPRPWDAPRP | 0.0508

Sequence | shrunken log2 fold change
RRIRTRPPRLPRPRPRPADVPRP | -0.391
RRIRERPPRLPRPRPRPYGYPRP | -0.0695
RRIRPRPPRLPRPRPRPVLGPRP | 0.122
RRIRMRPPRLPRPRPRPRVAPRP | 0.699
RRIRQRPPRLPRPRPRPCCFPRP | 0.0639
RRIRDRPPRLPRPRPRPVMAPRP | 0.774
RRIRQRPPRLPRPRPRPWVMPRP | -0.0363
RRIRNRPPRLPRPRPRPNHPPRP | -0.318
RRIRWRPPRLPRPRPRPDMPPRP | 0.325
RRIRLRPPRLPRPRPRPEDFPRP | 0.0854
RRIRIRPPRLPRPRPRPFKWPRP | -0.128
RRIRWRPPRLPRPRPRPCSCPRP | 0.0968
RRIRFRPPRLPRPRPRPYSRPRP | -0.187
RRIRGRPPRLPRPRPRPWTSPRP | 0.0439
RRIRTRPPRLPRPRPRPWYKPRP | -0.0134
RRIRSRPPRLPRPRPRPNVLPRP | 0.105
RRIRLRPPRLPRPRPRPEFMPRP | -0.109
RRIRVRPPRLPRPRPRPLRPPRP | 0.97
RRIRQRPPRLPRPRPRPVPSPRP | -0.0282
RRIRARPPRLPRPRPRPIEWPRP | 0.638
RRIRARPPRLPRPRPRPDFSPRP | 0.000254
RRIRARPPRLPRPRPRPIDSPRP | -0.0515
RRIRIRPPRLPRPRPRPPKIPRP | -0.106
RRIRERPPRLPRPRPRPLMDPRP | -0.134
RRIRNRPPRLPRPRPRPTSRPRP | -0.129
